The record followed here is publication PMC6581795, “Phosphorylation of FANCD2 Inhibits the FANCD2/FANCI Complex and Suppresses the Fanconi Anemia Pathway in the Absence of DNA Damage”.

One series deals with FANCD2 WT;FANCI (Homo sapiens;Homo sapiens?, UniProt Q9BXW9;Q9NVI1 1-1451;1-1328, |). Nature of the series: EMSA; untreated; EMSA: 1 nM DNA, 25 mM Tris-HCl pH 7.5, 100 mM NaCl, 1 mM EDTA, 6% glycerol, 1 mM DTT, room temperature 1 h; 4% PAGE 0.4x TBE at 4 C. The conditions noted are these: protein: recombinant;recombinant; copies: 1;1. In general terms: A gel shift assay detects complexes by their altered migration in electrophoresis.

The target of another series is FANCD2-6A;FANCI (Homo sapiens;Homo sapiens?, UniProt Q9BXW9;Q9NVI1 1-1451;1-1328, S882A;T884A;S886A;S891A;T896A;S898A|). Nature of the series: EMSA; untreated; similar to WT; EMSA: 1 nM DNA, 25 mM Tris-HCl pH 7.5, 100 mM NaCl, 1 mM EDTA, 6% glycerol, 1 mM DTT, room temperature 1 h; 4% PAGE 0.4x TBE at 4 C. The conditions noted are these: protein: recombinant;recombinant; copies: 1;1.
Sequence of FANCD2-6A;FANCI (Q9BXW9 whole entry S882A/T884A/S886A/S891A/T896A/S898A, chain 1 of 2): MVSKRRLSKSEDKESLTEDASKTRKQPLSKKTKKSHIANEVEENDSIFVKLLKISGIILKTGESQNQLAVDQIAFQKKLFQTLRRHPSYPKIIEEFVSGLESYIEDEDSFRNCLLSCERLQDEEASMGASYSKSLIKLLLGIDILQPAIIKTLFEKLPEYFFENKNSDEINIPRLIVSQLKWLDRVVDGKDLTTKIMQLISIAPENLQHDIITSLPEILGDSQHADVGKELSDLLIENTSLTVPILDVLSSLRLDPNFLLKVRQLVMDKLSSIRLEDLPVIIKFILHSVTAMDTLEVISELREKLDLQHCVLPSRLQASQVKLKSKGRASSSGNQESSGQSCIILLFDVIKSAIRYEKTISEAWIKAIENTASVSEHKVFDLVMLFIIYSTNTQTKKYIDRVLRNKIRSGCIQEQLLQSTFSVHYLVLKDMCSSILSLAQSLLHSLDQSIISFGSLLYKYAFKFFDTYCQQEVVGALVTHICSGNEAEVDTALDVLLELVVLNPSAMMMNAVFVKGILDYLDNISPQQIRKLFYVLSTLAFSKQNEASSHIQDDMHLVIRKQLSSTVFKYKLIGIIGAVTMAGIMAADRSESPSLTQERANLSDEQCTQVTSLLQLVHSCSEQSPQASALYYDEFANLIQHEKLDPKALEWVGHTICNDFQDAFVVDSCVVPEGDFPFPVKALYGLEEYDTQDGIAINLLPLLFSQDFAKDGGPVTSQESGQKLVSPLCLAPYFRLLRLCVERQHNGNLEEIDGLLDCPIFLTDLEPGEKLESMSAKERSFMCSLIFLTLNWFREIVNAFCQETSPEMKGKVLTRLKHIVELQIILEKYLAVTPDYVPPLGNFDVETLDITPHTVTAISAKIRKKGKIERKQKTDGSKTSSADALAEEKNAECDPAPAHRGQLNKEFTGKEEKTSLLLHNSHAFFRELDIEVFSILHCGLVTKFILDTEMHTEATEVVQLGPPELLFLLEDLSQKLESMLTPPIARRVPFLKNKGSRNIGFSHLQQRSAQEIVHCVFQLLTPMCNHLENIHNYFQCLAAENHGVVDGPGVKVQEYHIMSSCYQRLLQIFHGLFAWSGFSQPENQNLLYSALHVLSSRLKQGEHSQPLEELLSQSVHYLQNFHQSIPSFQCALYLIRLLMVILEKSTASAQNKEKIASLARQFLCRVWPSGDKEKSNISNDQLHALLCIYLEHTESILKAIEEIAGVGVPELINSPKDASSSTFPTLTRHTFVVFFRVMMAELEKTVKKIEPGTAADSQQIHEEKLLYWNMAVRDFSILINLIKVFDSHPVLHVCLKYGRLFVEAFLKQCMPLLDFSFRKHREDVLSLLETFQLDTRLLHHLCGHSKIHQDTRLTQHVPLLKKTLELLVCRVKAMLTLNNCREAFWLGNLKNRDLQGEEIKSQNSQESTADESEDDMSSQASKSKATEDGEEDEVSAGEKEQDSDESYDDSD
Sequence of FANCD2-6A;FANCI (Q9NVI1 whole entry, stated change not applied, chain 2 of 2): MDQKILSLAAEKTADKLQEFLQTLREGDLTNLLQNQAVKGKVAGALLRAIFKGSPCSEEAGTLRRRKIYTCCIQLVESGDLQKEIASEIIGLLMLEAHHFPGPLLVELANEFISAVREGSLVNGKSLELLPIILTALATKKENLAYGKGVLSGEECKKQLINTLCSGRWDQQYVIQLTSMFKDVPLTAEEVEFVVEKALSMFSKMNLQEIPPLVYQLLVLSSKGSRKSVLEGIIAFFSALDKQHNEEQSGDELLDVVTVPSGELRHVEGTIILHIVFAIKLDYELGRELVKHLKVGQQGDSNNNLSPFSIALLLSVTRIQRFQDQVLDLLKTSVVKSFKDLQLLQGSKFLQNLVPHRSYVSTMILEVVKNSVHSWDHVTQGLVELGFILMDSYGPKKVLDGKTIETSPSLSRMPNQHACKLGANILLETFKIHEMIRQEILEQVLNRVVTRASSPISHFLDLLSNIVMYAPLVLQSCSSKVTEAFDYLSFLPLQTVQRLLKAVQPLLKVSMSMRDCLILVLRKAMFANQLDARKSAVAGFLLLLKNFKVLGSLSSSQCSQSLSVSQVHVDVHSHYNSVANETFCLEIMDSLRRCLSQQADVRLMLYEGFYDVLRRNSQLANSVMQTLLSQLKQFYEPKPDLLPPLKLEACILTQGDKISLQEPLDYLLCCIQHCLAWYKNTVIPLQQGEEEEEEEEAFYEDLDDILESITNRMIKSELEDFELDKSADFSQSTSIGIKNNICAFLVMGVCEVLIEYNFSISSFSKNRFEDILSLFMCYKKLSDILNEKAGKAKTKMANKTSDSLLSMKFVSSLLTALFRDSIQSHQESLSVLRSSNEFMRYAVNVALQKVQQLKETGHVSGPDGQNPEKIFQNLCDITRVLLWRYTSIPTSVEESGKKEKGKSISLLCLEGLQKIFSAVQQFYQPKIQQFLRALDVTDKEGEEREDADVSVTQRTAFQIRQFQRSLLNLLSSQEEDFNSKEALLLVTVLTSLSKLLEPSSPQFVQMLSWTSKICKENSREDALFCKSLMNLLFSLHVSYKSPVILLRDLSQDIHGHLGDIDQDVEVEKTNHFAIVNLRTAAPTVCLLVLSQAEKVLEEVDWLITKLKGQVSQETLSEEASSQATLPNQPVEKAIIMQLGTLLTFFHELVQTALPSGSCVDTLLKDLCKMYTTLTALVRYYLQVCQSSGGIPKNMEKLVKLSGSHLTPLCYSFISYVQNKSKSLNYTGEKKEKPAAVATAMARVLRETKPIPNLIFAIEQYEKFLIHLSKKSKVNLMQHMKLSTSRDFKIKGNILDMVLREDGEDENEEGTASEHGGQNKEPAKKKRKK

Sequence of FANCD2 WT;FANCI (Q9BXW9 whole entry, chain 1 of 2): as the sequence (Q9BXW9 whole entry S882A/T884A/S886A/S891A/T896A/S898A, chain 1 of 2) above, with A882S, A884T, A886S, A891S, A896T, A898S counted along it
Sequence of FANCD2 WT;FANCI (Q9NVI1 whole entry, chain 2 of 2): as the sequence (Q9NVI1 whole entry, stated change not applied, chain 2 of 2) above

B1: ICL14 Y-shaped DNA (mixed)
DNA 1: CATTGTGAATTCGCCTCTCTGTCTAGCCGAAGCTCGAAACGATCTTGTGC
DNA 2: GTCCATCAAAGTTCGACTGTGCGGCTAGACAGAGAGGCGAATTCACAATG
B1: the binding result with FANCD2 WT;FANCI and with FANCD2-6A;FANCI was “binds” in each case.
